For assay [1], the target named is PD-L1 (antigen of the indirect ELISA for titre; not specified). As to the kind of experiment: indirect ELISA, ascites antibody.
In assay [2] the target is 人PD-L1-His (human) (UniProt Q9NZQ7). The experiment in a line: SPR; PD-L1-His captured by anti-His antibody on a CM5 chip, antibody as analyte 0-1000 nmol/L, 1:1 binding fit. A general note: Surface plasmon resonance follows binding to a sensor surface in real time, without labels.

PD-L1 (antigen of the indirect ELISA for titre; not specified), sequence (Q9NZQ7 whole entry): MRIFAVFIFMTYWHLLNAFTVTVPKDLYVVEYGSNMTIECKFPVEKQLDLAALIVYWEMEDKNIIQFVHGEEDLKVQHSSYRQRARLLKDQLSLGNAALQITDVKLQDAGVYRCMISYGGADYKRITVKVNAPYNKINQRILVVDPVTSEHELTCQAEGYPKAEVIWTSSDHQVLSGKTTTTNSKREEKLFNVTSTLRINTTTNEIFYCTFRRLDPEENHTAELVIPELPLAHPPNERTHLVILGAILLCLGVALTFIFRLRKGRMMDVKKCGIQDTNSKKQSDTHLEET

B1: PD-L1单克隆抗体 1A7 (antibody, part only; not given: light chain variable domain, V domains shown, part only)
VH: EVKLVESGGGLVKPGGSLKLSCAASGFTFSQTTMAWVRQIPEKRLEWVASIEEGGSCCFPDSALSRFTISRDNARNICYLQMNSLRSDDTAMYYCARAREACAGYFARWGQGTTLTVSS
A word on the Kd: it is the free concentration of one partner at which half of the binding sites on the other are occupied at equilibrium, for simple one-to-one binding. Lower therefore signals higher affinity. In assay [1], B1 registered a 腹水效价 (ascites titre) (titre (1:x dilution)) of 2.56e+06. The molecule further showed a dissociation constant (Kd) in assay [2] of 4.19 nM.
